Assay results taken from the supplement of paper PMC9233669.
This sample holds only a part of the variants without activity.

Key:
biotinyl-Leu-oxazolone = assay: self-aminoacylation, catalytic enhancement (BLO) (fold over background); higher = more active; k-Seq, kA / k0A0; sequences stand for … in GGGAAUGGAUCCACAUCUACGAAUUC…UUCACUGCAGACUUGACGAAGCUG
Summary of the method: (§1)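 Catalytic enhancement equals the median kA over the uncatalyzed rate, the latter read from the low-activity peak of a bimodal Gaussian fit. Values of kA came from fitting each sequence's fraction reacted to a pseudo-first-order model, with 1000 bootstraps. Reacted RNA was captured with streptavidin and quantified by triplicate qPCR and Illumina sequencing after 90 minutes at room temperature with 2–1250 μM biotinyl-aminoacyl-oxazolone and 0.43 μM mutagenized RNA pools bearing a 21-nt variable region.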

biotinyl-Ile-oxazolone = assay: self-aminoacylation, catalytic enhancement (BIO) (fold over background); higher = more active; k-Seq, kA / k0A0; sequences stand for … in GGGAAUGGAUCCACAUCUACGAAUUC…UUCACUGCAGACUUGACGAAGCUG
Summary of the method: as §1

biotinyl-Trp-oxazolone = assay: self-aminoacylation, catalytic enhancement (BWO) (fold over background); higher = more active; k-Seq, kA / k0A0; sequences stand for … in GGGAAUGGAUCCACAUCUACGAAUUC…UUCACUGCAGACUUGACGAAGCUG
Summary of the method: as §1

biotinyl-Phe-oxazolone = assay: self-aminoacylation, catalytic enhancement (BFO) (fold over background); higher = more active; k-Seq, kA / k0A0; sequences stand for … in GGGAAUGGAUCCACAUCUACGAAUUC…UUCACUGCAGACUUGACGAAGCUG
Summary of the method: as §1

biotinyl-Val-oxazolone = assay: self-aminoacylation, catalytic enhancement (BVO) (fold over background); higher = more active; k-Seq, kA / k0A0; sequences stand for … in GGGAAUGGAUCCACAUCUACGAAUUC…UUCACUGCAGACUUGACGAAGCUG
Summary of the method: as §1

biotinyl-Met-oxazolone = assay: self-aminoacylation, catalytic enhancement (BMO) (fold over background); higher = more active; k-Seq, kA / k0A0; sequences stand for … in GGGAAUGGAUCCACAUCUACGAAUUC…UUCACUGCAGACUUGACGAAGCUG
Summary of the method: as §1

In the case of “AUUAUCCAGGUCAUCGAGUGA [Fam2.1 aminoacylation ribozyme variant]”, the self-aminoacylation (biotinyl-Leu-oxazolone) is reported as 6.32, the self-aminoacylation (biotinyl-Ile-oxazolone) is reported as 3.13 and the self-aminoacylation (biotinyl-Trp-oxazolone) is reported as 7.93. It also gave a self-aminoacylation (biotinyl-Phe-oxazolone) of 30.3, a self-aminoacylation (biotinyl-Val-oxazolone) of 3.41 and a self-aminoacylation (biotinyl-Met-oxazolone) of 6.52.
For “AUUAUCCUGCUCAUCGAGUGA [Fam2.1 aminoacylation ribozyme variant]”, the self-aminoacylation (biotinyl-Leu-oxazolone) was 2.77, the self-aminoacylation (biotinyl-Ile-oxazolone) was 1.76 and the self-aminoacylation (biotinyl-Trp-oxazolone) was 3.08. It also gave a self-aminoacylation (biotinyl-Phe-oxazolone) of 2.88, a self-aminoacylation (biotinyl-Val-oxazolone) of 1.8 and a self-aminoacylation (biotinyl-Met-oxazolone) of 2.69.
For “AUUAUCCUGGUCACCGAGUGA [Fam2.1 aminoacylation ribozyme variant]”, the self-aminoacylation (biotinyl-Leu-oxazolone) was 8.43, the self-aminoacylation (biotinyl-Ile-oxazolone) was 3.11 and the self-aminoacylation (biotinyl-Trp-oxazolone) was 8.39. The self-aminoacylation (biotinyl-Phe-oxazolone) was 54, the self-aminoacylation (biotinyl-Val-oxazolone) was 3.84 and the self-aminoacylation (biotinyl-Met-oxazolone) was 7.82.
“AUUAUCCUGGUCAUCGAGUGU [Fam2.1 aminoacylation ribozyme variant]” was tested, and the self-aminoacylation (biotinyl-Leu-oxazolone) was 10.2, the self-aminoacylation (biotinyl-Ile-oxazolone) was 4.25 and the self-aminoacylation (biotinyl-Trp-oxazolone) was 9.45. It also gave a self-aminoacylation (biotinyl-Phe-oxazolone) of 15.3, a self-aminoacylation (biotinyl-Val-oxazolone) of 4.73 and a self-aminoacylation (biotinyl-Met-oxazolone) of 11.1.
“AUUAUCCUGGUCCUCGAGUGA [Fam2.1 aminoacylation ribozyme variant]” showed a self-aminoacylation (biotinyl-Leu-oxazolone) of 5.19, a self-aminoacylation (biotinyl-Ile-oxazolone) of 2.4 and a self-aminoacylation (biotinyl-Trp-oxazolone) of 6.54. It also gave a self-aminoacylation (biotinyl-Phe-oxazolone) of 21.9, a self-aminoacylation (biotinyl-Val-oxazolone) of 2.33 and a self-aminoacylation (biotinyl-Met-oxazolone) of 4.56.
“AUUAUCCUGGUCUUCGAGUGA [Fam2.1 aminoacylation ribozyme variant]” showed a self-aminoacylation (biotinyl-Leu-oxazolone) of 5.95, a self-aminoacylation (biotinyl-Ile-oxazolone) of 3.26 and a self-aminoacylation (biotinyl-Trp-oxazolone) of 7.67. It also gave a self-aminoacylation (biotinyl-Phe-oxazolone) of 37.6, a self-aminoacylation (biotinyl-Val-oxazolone) of 2.93 and a self-aminoacylation (biotinyl-Met-oxazolone) of 5.8.
For “AUUAUCCUGGUUAUCGAGUGA [Fam2.1 aminoacylation ribozyme variant]”, the self-aminoacylation (biotinyl-Leu-oxazolone) was 13.5, the self-aminoacylation (biotinyl-Ile-oxazolone) was 5.55 and the self-aminoacylation (biotinyl-Trp-oxazolone) was 14.7. It also gave a self-aminoacylation (biotinyl-Phe-oxazolone) of 71.3, a self-aminoacylation (biotinyl-Val-oxazolone) of 4.88 and a self-aminoacylation (biotinyl-Met-oxazolone) of 12.2.
With “AUUAUGCUGGUCAUCGAGUGA [Fam2.1 aminoacylation ribozyme variant]” the self-aminoacylation (biotinyl-Leu-oxazolone) was 4.22, the self-aminoacylation (biotinyl-Ile-oxazolone) was 3.15 and the self-aminoacylation (biotinyl-Trp-oxazolone) was 5.2. The self-aminoacylation (biotinyl-Phe-oxazolone) was 14.9, the self-aminoacylation (biotinyl-Val-oxazolone) was 2.69 and the self-aminoacylation (biotinyl-Met-oxazolone) was 4.1.
“AUUCAACUAGAUCAUCGGGUG [Fam2.2 aminoacylation ribozyme variant]” showed a self-aminoacylation (biotinyl-Leu-oxazolone) of 2.53, a self-aminoacylation (biotinyl-Ile-oxazolone) of 1.82 and a self-aminoacylation (biotinyl-Trp-oxazolone) of 2.93. For the same sequence, the self-aminoacylation (biotinyl-Phe-oxazolone) was 9.72, the self-aminoacylation (biotinyl-Val-oxazolone) was 1.77 and the self-aminoacylation (biotinyl-Met-oxazolone) was 2.44.
With “AUUCAACUAGCUCAUCGGGUG [Fam2.2 aminoacylation ribozyme variant]” the self-aminoacylation (biotinyl-Leu-oxazolone) was 2, the self-aminoacylation (biotinyl-Ile-oxazolone) was 2.04 and the self-aminoacylation (biotinyl-Trp-oxazolone) was 1.82. The self-aminoacylation (biotinyl-Phe-oxazolone) was 15, the self-aminoacylation (biotinyl-Val-oxazolone) was 2.45 and the self-aminoacylation (biotinyl-Met-oxazolone) was 1.74.
“AUUCAACUAGGCCAUCGGGUG [Fam2.2 aminoacylation ribozyme variant]” was tested, and the self-aminoacylation (biotinyl-Leu-oxazolone) was 3.74, the self-aminoacylation (biotinyl-Ile-oxazolone) was 2.61 and the self-aminoacylation (biotinyl-Trp-oxazolone) was 3.9. The self-aminoacylation (biotinyl-Phe-oxazolone) was 21.5, the self-aminoacylation (biotinyl-Val-oxazolone) was 2.31 and the self-aminoacylation (biotinyl-Met-oxazolone) was 3.66.
“AUUCAACUAGGUCAUCAGGUG [Fam2.2 aminoacylation ribozyme variant]” gave a self-aminoacylation (biotinyl-Leu-oxazolone) of 1.54, a self-aminoacylation (biotinyl-Ile-oxazolone) of 1.28 and a self-aminoacylation (biotinyl-Trp-oxazolone) of 1.33. The self-aminoacylation (biotinyl-Phe-oxazolone) was 1.43, the self-aminoacylation (biotinyl-Val-oxazolone) was 1.22 and the self-aminoacylation (biotinyl-Met-oxazolone) was 1.29.
“AUUCAACUAGGUCAUCGGGCG [Fam2.2 aminoacylation ribozyme variant]” gave a self-aminoacylation (biotinyl-Leu-oxazolone) of 3.67, a self-aminoacylation (biotinyl-Ile-oxazolone) of 2.48 and a self-aminoacylation (biotinyl-Trp-oxazolone) of 2.46. The self-aminoacylation (biotinyl-Phe-oxazolone) was 5.35, the self-aminoacylation (biotinyl-Val-oxazolone) was 2.36 and the self-aminoacylation (biotinyl-Met-oxazolone) was 2.73.
“AUUCAACUAGGUCAUCGGGGG [Fam2.2 aminoacylation ribozyme variant]” was tested, and the self-aminoacylation (biotinyl-Leu-oxazolone) was 1.86, the self-aminoacylation (biotinyl-Ile-oxazolone) was 1.75 and the self-aminoacylation (biotinyl-Trp-oxazolone) was 2.56. The self-aminoacylation (biotinyl-Phe-oxazolone) was 0.813, the self-aminoacylation (biotinyl-Val-oxazolone) was 1.66 and the self-aminoacylation (biotinyl-Met-oxazolone) was 1.59.
“AUUCAACUAGGUCAUCGGGUG [Fam2.2 aminoacylation ribozyme variant]” showed a self-aminoacylation (biotinyl-Leu-oxazolone) of 7.19, a self-aminoacylation (biotinyl-Ile-oxazolone) of 3.6 and a self-aminoacylation (biotinyl-Trp-oxazolone) of 5.46. For the same sequence, the self-aminoacylation (biotinyl-Phe-oxazolone) was 40.6, the self-aminoacylation (biotinyl-Val-oxazolone) was 3.47 and the self-aminoacylation (biotinyl-Met-oxazolone) was 5.65.
“AUUCAACUAGGUCAUGGGGUG [Fam2.2 aminoacylation ribozyme variant]” was tested, and the self-aminoacylation (biotinyl-Leu-oxazolone) was 5.63, the self-aminoacylation (biotinyl-Ile-oxazolone) was 2.96 and the self-aminoacylation (biotinyl-Trp-oxazolone) was 4.16. For the same sequence, the self-aminoacylation (biotinyl-Phe-oxazolone) was 27.7, the self-aminoacylation (biotinyl-Val-oxazolone) was 3.16 and the self-aminoacylation (biotinyl-Met-oxazolone) was 4.28.
Sequence “AUUCAACUGGGUCAUCGGGUG [Fam2.2 aminoacylation ribozyme variant]” has a self-aminoacylation (biotinyl-Leu-oxazolone) of 7.37, a self-aminoacylation (biotinyl-Ile-oxazolone) of 3.89 and a self-aminoacylation (biotinyl-Trp-oxazolone) of 5.74. It also gave a self-aminoacylation (biotinyl-Phe-oxazolone) of 39.5, a self-aminoacylation (biotinyl-Val-oxazolone) of 3.96 and a self-aminoacylation (biotinyl-Met-oxazolone) of 5.25.
In the case of “AUUCAAGUAGGUCAUCGGGUG [Fam2.2 aminoacylation ribozyme variant]”, the self-aminoacylation (biotinyl-Leu-oxazolone) is reported as 7.04, the self-aminoacylation (biotinyl-Ile-oxazolone) is reported as 3.73 and the self-aminoacylation (biotinyl-Trp-oxazolone) is reported as 5.33. The self-aminoacylation (biotinyl-Phe-oxazolone) was 36.6, the self-aminoacylation (biotinyl-Val-oxazolone) was 3.43 and the self-aminoacylation (biotinyl-Met-oxazolone) was 5.19.
“AUUCACAGAGGUCAUCGGGUG [Fam2.2 aminoacylation ribozyme variant]” gave a self-aminoacylation (biotinyl-Leu-oxazolone) of 7.94, a self-aminoacylation (biotinyl-Ile-oxazolone) of 4.48 and a self-aminoacylation (biotinyl-Trp-oxazolone) of 6.32. It also gave a self-aminoacylation (biotinyl-Phe-oxazolone) of 45.9, a self-aminoacylation (biotinyl-Val-oxazolone) of 5.02 and a self-aminoacylation (biotinyl-Met-oxazolone) of 6.99.
In the case of “AUUCACAUAGGUAAUCGGGUG [Fam2.2 aminoacylation ribozyme variant]”, the self-aminoacylation (biotinyl-Leu-oxazolone) is reported as 5.2, the self-aminoacylation (biotinyl-Ile-oxazolone) is reported as 2.65 and the self-aminoacylation (biotinyl-Trp-oxazolone) is reported as 4.8. It also gave a self-aminoacylation (biotinyl-Phe-oxazolone) of 34, a self-aminoacylation (biotinyl-Val-oxazolone) of 2.6 and a self-aminoacylation (biotinyl-Met-oxazolone) of 4.85.
Work on “AUUCACAUAGGUCACCGGGUG [Fam2.2 aminoacylation ribozyme variant]” yielded a self-aminoacylation (biotinyl-Leu-oxazolone) of 7.78, a self-aminoacylation (biotinyl-Ile-oxazolone) of 4.8 and a self-aminoacylation (biotinyl-Trp-oxazolone) of 5.42. It also gave a self-aminoacylation (biotinyl-Phe-oxazolone) of 42.3, a self-aminoacylation (biotinyl-Val-oxazolone) of 4.6 and a self-aminoacylation (biotinyl-Met-oxazolone) of 5.7.
Sequence “AUUCACAUAGGUCAUCCGGUG [Fam2.2 aminoacylation ribozyme variant]” has a self-aminoacylation (biotinyl-Leu-oxazolone) of 9.85, a self-aminoacylation (biotinyl-Ile-oxazolone) of 5.32 and a self-aminoacylation (biotinyl-Trp-oxazolone) of 7.74. The self-aminoacylation (biotinyl-Phe-oxazolone) was 55.9, the self-aminoacylation (biotinyl-Val-oxazolone) was 5.53 and the self-aminoacylation (biotinyl-Met-oxazolone) was 7.79.
With “AUUCACAUAGGUCAUCGCGUG [Fam2.2 aminoacylation ribozyme variant]” the self-aminoacylation (biotinyl-Leu-oxazolone) was 17.6, the self-aminoacylation (biotinyl-Ile-oxazolone) was 7.23 and the self-aminoacylation (biotinyl-Trp-oxazolone) was 12.1. The self-aminoacylation (biotinyl-Phe-oxazolone) was 108, the self-aminoacylation (biotinyl-Val-oxazolone) was 7.84 and the self-aminoacylation (biotinyl-Met-oxazolone) was 14.
